Experimental data from publication PMC5587734.

Assays:
MBD2 MBD+IDR (chicken) = MBD2 MBD+IDR (chicken) (chicken, UniProt Q5EFL0 1-117); assay: NMR
MBD2 MBD (chicken) = MBD2 MBD (chicken) (chicken, UniProt Q5EFL0 1-71); assay: NMR

B1: INV mCpG DNA (dsDNA)
DNA 1: GGACCGACTC
DNA 2: GAGTCGGTCC
modifications: 5mC at position 5 of strand 1; complement methylation implied
B1: binds (MBD2 MBD+IDR (chicken)); binds (MBD2 MBD (chicken)).
